From patent US5871739

Molecular target: β-crystallin (containing about 10% βA3 -crystallin)
Assay: ELISA of mouse sera in the same manner as in Experimental Example 2; anti-crystallin antibody titer, control group
Details: scale: dilution ratio

sera of control mice given PBS (Experimental Example 5) (polyclonal serum or antibody)
antibody titer: 500
